The data set deals with U1A-Myc-His (UniProt P09012 1-102). Description: competition.
Chain of U1A-Myc-His (P09012 1-102): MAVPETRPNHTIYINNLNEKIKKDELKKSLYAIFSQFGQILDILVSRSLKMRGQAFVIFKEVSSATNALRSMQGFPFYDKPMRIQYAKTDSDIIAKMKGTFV

B1: hpIIΔDIS (U1 hpII Δ16/18A/10G) (structured_RNA)
RNA: GGCAUAUCCAGUGCACCAGGGUAUGCC
As for B1, the binding result is given as “binds”.

These data come from PMC2879510.
